Measured values reported in patent US12383572B2, “Administration of an anti-activin-a compound to a subject” (AMGEN INC., priority 2013, dated 2025).

Experiments:
[1] = tested on: TOV-21G ovarian cancer xenografts; test: TOV-21G xenograft growth in nude mice, activin-A antagonists alone; assay type: in vivo, human; conditions: sActRIIB 30 mg/kg SC 1x/week, activin-A antibody 30 mg/kg SC 2x/week, from day 12, vs PBS
Procedure: TOV-21G xenograft. 5×10^6 TOV-21G ovarian cancer cells were implanted subcutaneously into individual female athymic nu/nu mice (Harlan). Treatment was initiated at day 12 after tumor implantation, when the average tumor volume reached approximately 150 mm^3. The mice received PBS, sActRIIB (30 mg/kg, SC, 1×/week) or activin-A antibody (30 mg/kg, SC, 2×/week). In a separate chemotherapy combination experiment, the mice were treated with PBS, sActRIIB (10 mg/kg, SC, 1×/week), 5-FU (50 mg/kg, IP, 3 cycles, 4 daily injections per cycle) or sActRIIB and 5-FU combination at the same doses above. For all xenograft experiments, the tumor sizes were measured longitudinally by using an electronic caliper. Immediately prior to the 1st dose, the tumor-bearing mice were randomized to ensure even distribution in tumor sizes across different groups. Tumor volumes (mm^3) were calculated as tumor length (mm)×tumor width (mm)×tumor height (mm). Tumor weights were determined by necropsy.

[2] = tested on: TOV-21G tumors (apoptosis); test: Active caspase-3 immunostaining and TUNEL assay on TOV-21G tumor sections; assay type: in vivo, human; conditions: TOV-21G xenograft tumors
Procedure: Zinc-formalin fixed paraffin tumor tissue sections of 4 μm in thickness were prepared. The sections were subjected to antigen retrieval by microwave 3 min in Unmask solution (Vector H-3300) followed by incubation in 10 μg/ml Proteinase-K for 20 min and in 1% H2O2 in dH2O for 10 min at room temperature. The sections were further incubated in 0.1% Tween-20 in PBS for 3 min to permeabilize the cell membrane and in goat serum for 30 min to block non-specific binding. The sections were then incubated at room temperature with specific primary antibody for 3 hours followed by incubation in biotinylated or fluorescently labeled secondary antibody. Substrate developed in Vector SG kit (SK-4700) or DAB and nuclear-counterstained in Vector Fast Red (H-3403) or in hematoxylin. The immunostained tissue sections were analyzed and photographed using a Nikon Eclipse 90i microscope equipped with DS-Ril camera. […]
Cell apoptosis in TOV-21G tumors was analyzed by measuring the amounts of fragmented DNA in the tumor sections using the DeadEnd Fluorometric TUNEL System following the manufacturer's recommended protocols (Promega, G3250). The fluorescein-12-dUTP-labeled DNA was visualized by Nikon fluorescence microscopy.

[3] = tested on: VEGF and Ang-1; test: VEGF and Ang-1 immunostaining of inh-KO ovarian and testicular tumor sections; assay type: in vivo, mouse; conditions: ovarian and testicular tumors, inh-KO mice
Procedure: Zinc-formalin fixed paraffin tumor tissue sections of 4 μm in thickness were prepared. The sections were subjected to antigen retrieval by microwave 3 min in Unmask solution (Vector H-3300) followed by incubation in 10 μg/ml Proteinase-K for 20 min and in 1% H2O2 in dH2O for 10 min at room temperature. The sections were further incubated in 0.1% Tween-20 in PBS for 3 min to permeabilize the cell membrane and in goat serum for 30 min to block non-specific binding. The sections were then incubated at room temperature with specific primary antibody for 3 hours followed by incubation in biotinylated or fluorescently labeled secondary antibody. Substrate developed in Vector SG kit (SK-4700) or DAB and nuclear-counterstained in Vector Fast Red (H-3403) or in hematoxylin. The immunostained tissue sections were analyzed and photographed using a Nikon Eclipse 90i microscope equipped with DS-Ril camera. The primary antibodies used and their dilutions are as follows: VEGF (BD Pharmingen 550549) 1:20 or VEGF (Abcam ab46154) 1:100, active caspase-3 (Abcam ab32042) 1:50, Ang-1 (Abcam ab8451) 1:500, osteopontin (Abcam ab8448) 1:200, CD-31 (Abcam ab56299) 1:100, E-cadherin (Abcam ab76319) 1:80. For immunofluorescence staining, FITC-conjugated secondary antibody (Invitrogen) was added at 1:50 dilution in PBS and incubated for 30 min. Cell nuclei were counterstained with Vectashield PE (Vector).

[4] = tested on: TOV-21G xenografts; test: TOV-21G xenograft in abdominal flank, hu-sActRIIB-Fc alone or with 5-FU: tumor growth; assay type: in vivo, human; conditions: 52 days after tumor cell injection, versus vehicle-treated tumor-bearing group
Procedure: In another experiment, athymic nude mice received TOV-21G xenografts in the abdominal flank. After 14 days, subcutaneous hu-sActRIIB-Fc was administered weekly alone or in combination with 5-FU.

[5] = tested on: activin-A (βA) mRNA; test: Northern blot of activin-A (βA) mRNA in inh-KO tumors; assay type: in vivo, mouse; conditions: inh-KO mice, increase vs WT controls
Procedure: Total RNA was isolated from individual tissue samples after homogenization in Trizol (Invitrogen). A pool of 10 μg RNA for each group containing equal amounts of total RNA isolated from individual animals was subjected to Northern blot analysis. The northern probes used for βA and Ang-2 were generated by using RT-PCR (Phusion, Biolabs). βA primer set: 5′-CCCTTGCTTTGGCTGAGAGGA-3′ (SEQ ID NO: 294) and 5′-TC ACA GGT CGT CGT AGG TCG-3′ (SEQ ID NO: 295); Ang-2 primer set: 5′-TGT GCC GGG GAG AAG AG (SEQ ID NO: 296) and 5′-TACAGTAGTGGGTTGAGGTTC-3′ (SEQ ID NO: 297). To normalize the expression, northern blot membranes were re-probed with β-actin.

[6] = tested on: ovarian tumors in inh-KO mice; test: Ovarian tumor mass by necropsy in female inh-KO mice; assay type: in vivo, mouse; conditions: 12-week-old female inh-KO mice, single injection 30 mg/kg SC, necropsy 14 days after
Procedure: Inh-KO mice. 12-week-old female and 8-week-old male inh-KO mice with fully established ovarian or testicular tumors received a single injection of PBS or sActRIIB (30 mg/kg, SC). As a control, age-matched wild-type littermates received a single injection of PBS. Ovarian and testicular organ weights were determined by necropsy 14 days after the injection.

[7] = sActRIIB single dose, withdrawal and re-administration in female Inhα KO mice: body weight; assay type: in vivo, mouse
Procedure: Eleven-to-fourteen-week-old female Inhα KO mice with body weight from 19.41 to 26.82 grams were subcutaneously (SC) injected with either 30 mg/kg sActRIIB or PBS. Age-matched WT littermate control mice were injected with PBS and served as baseline controls. The study ended by necropsy 2 weeks after injections. Two cohorts of mice were used in the study. Eleven-to-thirteen-week-old female Inhα KO mice with body weight from 17.7 to 27.4 grams were SC injected with either 30 mg/kg sAcLRIIB or PBS. Age-matched WT littermate control mice were injected with PBS and served as baseline controls. The withdrawal lasted for 8 weeks. At the end of the withdrawal, the sActRIIB treated mice were divided by balanced body weight into 2 groups (Group 3 and Group 4).
Group 2 and Group 3 were euthanized to examine the ovarian tumors. Group 4 received another dose of 30 mg/kg sActRIIB and the mice were euthanized together with the WT mice 4 weeks later (total 12 weeks). Mouse body weights were recorded once per week up to 12 weeks. For necropsy, mice were euthanized in a CO2 chamber. Normal ovaries in WT mice and ovarian tumors in Inhα KO mice were collected and weighed. All results were expressed as the mean±standard error of the mean (SEM). Statistical significance of difference between groups was analyzed using Student's 2-tailed t-test on MS Excel 5.0 software. […]

B1: sActRIIB: extracellular domain of human activin type-2B receptor fused to IgG2 Fc; full length SEQ ID NO: 21 (Table 9) (protein, listed as Homo sapiens)
chain: ETRWCIYYNANWELERTNQSGLERCEGEQDKRLHCYASWRNSSGTIELVKKGCWLDDFNCYDRQECVATEENPQVYFCCCEGNFCNERFTHLPEAGGPEVTYEPPPTAPTGGGGSVECPPCPAPPVAGPSVFLFPPKPKDTLMISRTPEVTCVVVDVSHEDPEVQFNWYVDGVEVHNAKTKPREEQFNSTFRVVSVLTVVHQDWLNGKEYKCKVSNKGLPAPIEKTISKTKGQPREPQVYTLPPSREEMTKNQVSLTCLVKGFYPSDIAVEWESNGQPENNYKTTPPMLDSDGSFFLYSKLTVDKSRWQQGNVFSCSVMHEALHNHYTQKSLSLSPGK
- growth of TOV-21G xenografts (tumor volume) [1]: significantly inhibited the growth
- active caspase-3 and DNA fragmentation (TUNEL) [2]: profound increases in active caspase-3 and DNA fragmentation
- VEGF and Ang-1 immunoreactivities in tumor sections [3]: completely abolished the VEGF and Ang-1 inductions in the tumors
- tumor growth reduction [4]: 43%
- levels of βA transcripts in the tumors [5]: completely blocked
- ovarian tumor mass [6]: regressed rapidly to the sizes seen in the WT control mice
- body weight, first 4 weeks after single dose ([7]; 30 mg/kg SC single dose): sustained weight gain in Inhα KO mice that exceeded the level of WT littermate control
- body weight after re-administration at week 8 (up to week 12) ([7]; second single dose 30 mg/kg): stimulated further weight gain
